Surface density of BMP-2 on PEA-FN data for one molecule are collected here from doi:10.1101/2022.07.28.501818.

This experiment concerns the target fibronectin (FN) from human plasma (human) (UniProt P02751).
UniProt P02751, sequence (P02751 32-2477): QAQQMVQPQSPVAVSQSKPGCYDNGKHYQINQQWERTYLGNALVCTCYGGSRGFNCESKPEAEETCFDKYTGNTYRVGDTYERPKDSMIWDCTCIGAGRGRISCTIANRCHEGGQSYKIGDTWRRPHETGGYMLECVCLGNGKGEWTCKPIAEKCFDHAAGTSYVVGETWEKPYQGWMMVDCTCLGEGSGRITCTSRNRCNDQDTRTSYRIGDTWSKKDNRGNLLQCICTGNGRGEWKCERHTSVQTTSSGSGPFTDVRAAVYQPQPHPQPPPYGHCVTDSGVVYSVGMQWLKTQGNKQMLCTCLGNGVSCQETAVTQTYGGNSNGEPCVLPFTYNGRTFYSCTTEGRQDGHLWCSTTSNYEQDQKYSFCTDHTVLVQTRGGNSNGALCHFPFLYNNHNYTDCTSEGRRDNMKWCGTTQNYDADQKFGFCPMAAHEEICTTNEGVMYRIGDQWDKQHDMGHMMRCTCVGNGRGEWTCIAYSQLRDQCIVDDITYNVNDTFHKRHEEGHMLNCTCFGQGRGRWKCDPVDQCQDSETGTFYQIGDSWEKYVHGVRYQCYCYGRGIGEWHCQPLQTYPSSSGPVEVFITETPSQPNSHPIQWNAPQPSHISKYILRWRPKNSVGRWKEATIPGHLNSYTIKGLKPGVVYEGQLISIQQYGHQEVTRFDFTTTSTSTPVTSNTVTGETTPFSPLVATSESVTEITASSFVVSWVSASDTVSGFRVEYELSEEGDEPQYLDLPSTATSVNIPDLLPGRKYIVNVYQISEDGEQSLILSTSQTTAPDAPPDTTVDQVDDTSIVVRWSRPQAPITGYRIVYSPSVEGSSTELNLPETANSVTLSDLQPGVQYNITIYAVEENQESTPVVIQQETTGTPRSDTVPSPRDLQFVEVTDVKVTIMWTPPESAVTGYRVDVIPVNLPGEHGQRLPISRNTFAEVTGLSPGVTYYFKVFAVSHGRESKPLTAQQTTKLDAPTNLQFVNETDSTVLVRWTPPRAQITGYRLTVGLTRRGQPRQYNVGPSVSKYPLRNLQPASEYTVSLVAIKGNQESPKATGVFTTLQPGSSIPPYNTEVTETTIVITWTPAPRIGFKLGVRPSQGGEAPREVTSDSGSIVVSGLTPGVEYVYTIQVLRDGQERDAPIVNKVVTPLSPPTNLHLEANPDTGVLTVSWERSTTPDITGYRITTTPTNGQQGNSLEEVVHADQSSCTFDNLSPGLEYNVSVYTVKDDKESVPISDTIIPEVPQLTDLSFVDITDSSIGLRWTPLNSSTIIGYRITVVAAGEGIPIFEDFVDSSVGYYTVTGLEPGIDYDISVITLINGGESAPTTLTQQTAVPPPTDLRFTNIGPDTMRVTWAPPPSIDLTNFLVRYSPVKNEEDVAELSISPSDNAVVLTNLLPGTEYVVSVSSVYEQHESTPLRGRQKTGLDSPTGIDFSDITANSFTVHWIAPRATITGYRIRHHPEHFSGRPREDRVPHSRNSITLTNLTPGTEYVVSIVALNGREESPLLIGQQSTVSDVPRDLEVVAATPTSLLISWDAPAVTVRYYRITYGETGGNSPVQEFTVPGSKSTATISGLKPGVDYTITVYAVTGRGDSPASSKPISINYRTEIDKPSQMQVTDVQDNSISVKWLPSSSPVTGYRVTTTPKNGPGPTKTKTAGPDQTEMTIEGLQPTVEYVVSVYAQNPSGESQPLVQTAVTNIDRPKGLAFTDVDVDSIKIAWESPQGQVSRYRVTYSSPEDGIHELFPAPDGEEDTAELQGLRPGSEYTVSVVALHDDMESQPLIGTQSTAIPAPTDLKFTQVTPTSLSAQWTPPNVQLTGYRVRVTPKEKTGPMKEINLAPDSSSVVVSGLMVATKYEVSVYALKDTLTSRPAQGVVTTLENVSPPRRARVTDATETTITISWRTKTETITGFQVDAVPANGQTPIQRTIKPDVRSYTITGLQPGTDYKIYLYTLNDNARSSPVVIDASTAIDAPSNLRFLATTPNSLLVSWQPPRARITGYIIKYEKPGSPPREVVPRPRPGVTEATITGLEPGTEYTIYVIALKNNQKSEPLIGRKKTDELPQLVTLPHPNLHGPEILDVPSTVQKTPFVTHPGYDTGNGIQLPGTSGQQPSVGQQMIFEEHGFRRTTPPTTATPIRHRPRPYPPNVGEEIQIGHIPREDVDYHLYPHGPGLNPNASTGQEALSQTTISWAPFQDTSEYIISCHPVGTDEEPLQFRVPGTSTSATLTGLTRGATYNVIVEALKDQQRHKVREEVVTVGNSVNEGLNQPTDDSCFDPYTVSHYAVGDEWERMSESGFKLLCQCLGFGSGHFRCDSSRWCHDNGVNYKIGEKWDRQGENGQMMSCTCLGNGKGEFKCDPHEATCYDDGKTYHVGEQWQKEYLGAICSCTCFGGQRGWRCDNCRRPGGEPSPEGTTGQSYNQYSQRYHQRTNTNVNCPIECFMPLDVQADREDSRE

B1: BMP-2 (bone morphogenetic protein 2) (ligand)
chain: QAKHKQRKRLKSSCKRHPLYVDFSDVGWNDWIVAPPGYHAFYCHGECPFPLADHLNSTNHAIVQTLVNSVNSKIPKACCVPTELSAISMLYLDENEKVVLKNYQDMVVEGCGCR
Molecule B1 showed a surface density of BMP-2 on PEA-FN of 8 ng/cm2.
